Measured values as given in patent US20260116982A1.

Biological target: CD1a antigen on CD1a+ T-ALL cells (Jurkat, MOLT4, primary cortical T-ALL blasts) and cortical thymocytes (human) (UniProt P06126)
Experiment: cell-based or functional assay

CD1a CAR (second-generation chimeric antigen receptor with the anti-CD1a scFv derived from clone NA1/34.HLK, CD8 TM spacer, 4-1BB (CD137) and CD3ζ signaling domains), expressed on T cells
specific cell lysis of CD1a+ T-ALL cell lines (Jurkat, MOLT4), 16 h assay, E:T 2:1 or 4:1: 50 to 80%
